Data reported in patent publication US20120039932A1.

Biological target: human DC-SIGN (CD209), expressed on 293T cells (human) (UniProt Q9NNX6)
Assay: cell-based or functional assay

Sequence of UniProt Q9NNX6 (Q9NNX6 whole entry): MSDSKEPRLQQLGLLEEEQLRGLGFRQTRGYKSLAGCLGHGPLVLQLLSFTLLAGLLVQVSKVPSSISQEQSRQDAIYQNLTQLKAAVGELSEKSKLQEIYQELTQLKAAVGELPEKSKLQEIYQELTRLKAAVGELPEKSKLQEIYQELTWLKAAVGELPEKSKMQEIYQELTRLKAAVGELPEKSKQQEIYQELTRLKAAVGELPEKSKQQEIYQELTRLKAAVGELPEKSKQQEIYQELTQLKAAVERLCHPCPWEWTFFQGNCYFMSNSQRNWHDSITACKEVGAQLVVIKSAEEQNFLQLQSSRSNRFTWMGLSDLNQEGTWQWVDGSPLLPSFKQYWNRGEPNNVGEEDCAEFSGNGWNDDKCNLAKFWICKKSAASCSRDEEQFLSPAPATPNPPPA

Substance	GFU/mL on 293-hDC-SIGN cells (transduction titer) [GFU/mL]	Ratio (GFU/mL on 293-hDC-SIGN cells over 293T cells)	GFU/mL on hDC-SIGN cells (transduction titer) [GFU/mL]	Ratio (GFU/mL on hDC-SIGN cells over 293T cells)
Sindbis virus HR strain envelope E2 glycoprotein, on pseudotyped lentiviral vector particles (from UniProt P03316 329-751)	6.4e+06	9.4	–	–
VSV-G envelope glycoprotein, on pseudotyped lentiviral vector particles (from UniProt P03522 17-511)	–	–	1.35e+08	1.19
